# Data taken from PMC8207647.
# Columns and labels:
# Assay in all cases: purified protein
# Conditions in all cases: O2 co-substrate, pH 7.5 sodium phosphate 50 mM, 35 °C
# [1] = system: COc1ccc(CO)cc1OC
# [2] = system: O=C(O)c1ccc(CO)o1
# [3] = system: O=Cc1ccc(C=O)o1
# [4] = system: O=Cc1ccc(CO)o1
substance,measurement,setting,value
FoxAAO (Fusarium oxysporum f. sp. lycopersici 4287),Km,[1],3.0 ± 0.24 mM
same,kcat,[1],25 ± 1.2 s⁻¹
same,kcat/Km,[1],8300 M⁻¹ s⁻¹
same,Km,[2],3.1 ± 0.31 mM
same,kcat,[2],5.2 ± 0.14 s⁻¹
same,kcat/Km,[2],1700 M⁻¹ s⁻¹
same,Km,[3],3.7 ± 1.0 mM
same,kcat,[3],1.4 ± 0.13 s⁻¹
same,kcat/Km,[3],380 M⁻¹ s⁻¹
same,Km,[4],17 ± 4.9 mM
